Laboratory results published in patent US9073982B2, “Targets for regulation of angiogenesis” (The University of North Carolina at Chapel Hill, priority 2008, dated 2015).
“Also recorded” adds a separate entry of the source.

Legend:
[1] = tested on: Human coronary artery endothelial cells (HCAEC); experiment: Hypoxia-induced endothelial cell apoptosis assay (caspase 3); type: cell-based; details: SFRP2 70 pM and 700 pM, 36 h hypoxia
Experimental: Human coronary artery endothelial cells (HCAEC) were used for apoptosis assays because apoptosis could not be induced in the MEC cells. HCAECs were grown in 10-cm dishes (Becton Dickinson, Franklin Lakes, N.J.) with endothelial cell basal medium-2 (EGM-2) BulletKit media (Clonetics, San Diego, Calif.) until 80% confluent. Medium was then replaced with optimal medium according to different assays. The hypoxic condition was created by incubating HCAECs in EGM-2 media without BulletKit growth factors at 37° C. in a hypoxia chamber with an atmosphere of 5% CO2/95% N2. The oxygen level in the chamber was controlled to 1.0%. Apoptosis was determined by measuring the activity of cleaved caspase 3 by using a caspase-specific fluorogenic substrate according to the protocol for the Caspase 3 Assay Kit (Sigma). HCAECs were lysed after treatment with concentrations of SFRP2 (70 pM and 700 pM) for 36 h under hypoxia. […] The enzyme-catalyzed release of 7-amino-4-methyl coumarin (AMC) was measured by a fluorescence microplate reader.
HCAEC were seeded onto a 96 well plate at 2,000 cells/well in EGM-2 with BulletKit growth supplements. […] Apoptosis was determined by measuring the activity of cleaved caspase 3 by using a caspase-specific fluorogenic substrate according to the protocol for the Apo-ONE® Homogeneous Caspase-3/7 Assay (Promega, Madison, Wis.). […]

[2] = tested on: C57BL/6 mice; experiment: Mouse MATRIGEL plug angiogenesis assay; type: in vivo
Experimental: The ability of mouse recombinant SFRP2 would stimulate angiogenesis in a mouse MATRIGEL plug angiogenesis assay was evaluated. Female C57BL/6 mice (8 weeks old) were injected s.c. with 0.5 ml of growth factor reduced basement membrane matrix (MATRIGEL) containing either mouse recombinant SFRP2 (800 ng/ml) with 30 U/ml heparin or PBS with 30 U/ml heparin for negative control. Seven days later the mice were sacrificed and the MATRIGEL plugs removed and evaluated for angiogenesis by hemoglobin concentration with the Drabkin's reagent.

B1: SFRP2: mouse recombinant SFRP2 (US Biologicals), secreted frizzled-related protein 2 (protein)
chain: LFLFGQPDFSYKRSNCKPIPANLQLCHGIEYQNMRLPNLLGHETMKEVLEQAGAWIPLVMKQCHPDTKKFLCSLFAPVCLDDLDETIQPCHSLCVQVKDRCAPVMSAFGFPWPDMLECDRFPQDNDLCIPLASSDHLLPATEEAPKVCEACKTKNEDDNDIMETLCKNDFALKIKVKEITYINRDTKIILETKSKTIYKLNGVSERDLKKSVLWLKDSLQCTCEEMNDINAPYLVMGQKQGGELVITSVKRWQKGQREFKRISRSIRKLQC
hypoxia induced endothelial cell apoptosis (cleaved caspase 3 activity) [1]: protected against hypoxia induced endothelial cell apoptosis; also recorded: inhibits hypoxia-induced apoptosis
hemoglobin content of plugs, increase compared with the vehicle control ([2]; SFRP2 800 ng/ml with heparin, s.c., seven days): 3.3 fold
angiogenesis in the mouse MATRIGEL plug assay ([2]; mouse, in vivo): induces angiogenesis
